Source: article PMC12123872

Columns and labels:
[1] = target: POLR2A fragment Ile1231-Lys1350 (UniProt P24928 1231-1350); test: EMSA
RAD21 = target: T1, RAD21 (UniProt O60216 1-631); test: EMSA
T1 sequence: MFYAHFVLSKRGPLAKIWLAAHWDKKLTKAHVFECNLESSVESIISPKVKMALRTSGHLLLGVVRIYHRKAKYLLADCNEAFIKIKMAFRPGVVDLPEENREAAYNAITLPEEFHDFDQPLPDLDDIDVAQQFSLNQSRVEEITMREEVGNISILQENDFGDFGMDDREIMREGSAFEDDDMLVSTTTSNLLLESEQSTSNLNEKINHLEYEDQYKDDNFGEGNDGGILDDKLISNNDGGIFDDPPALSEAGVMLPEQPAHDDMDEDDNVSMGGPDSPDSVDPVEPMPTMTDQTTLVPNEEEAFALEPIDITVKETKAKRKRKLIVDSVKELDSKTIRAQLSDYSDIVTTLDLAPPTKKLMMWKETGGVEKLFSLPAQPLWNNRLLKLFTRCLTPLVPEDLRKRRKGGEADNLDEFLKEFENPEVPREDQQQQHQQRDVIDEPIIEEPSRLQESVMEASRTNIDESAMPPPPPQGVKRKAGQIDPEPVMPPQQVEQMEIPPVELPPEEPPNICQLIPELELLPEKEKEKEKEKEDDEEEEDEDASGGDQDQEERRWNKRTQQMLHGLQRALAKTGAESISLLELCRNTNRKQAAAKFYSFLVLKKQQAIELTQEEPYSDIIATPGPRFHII

Chain of POLR2A fragment Ile1231-Lys1350 (P24928 1231-1350): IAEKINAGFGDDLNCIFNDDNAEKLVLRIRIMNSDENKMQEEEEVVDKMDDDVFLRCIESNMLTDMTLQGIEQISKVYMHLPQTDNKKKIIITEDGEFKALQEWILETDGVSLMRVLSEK

B1: rs1950834-G probe (dsDNA)
DNA 1: TCGGAGTTTGGCCTTCCGGCTCTCCAACTCAGATC
DNA 2: GATCTGAGTTGGAGAGCCGGAAGGCCAAACTCCGA
binding result [1]: binds | binding result (RAD21): binds
